# Data published in patent publication US20150344570A1 (published 2015).
# Positions count from the first letter of the chain named. Numbers in names are those of the source.
# T1: FcgRIIaR (human, UniProt P12318 34-217)
# T1 construct: extracellular domain; also called FcγRIIa R; FcγRIIa type R; not shown: His tag at the C terminus
# T1 sequence (looked up): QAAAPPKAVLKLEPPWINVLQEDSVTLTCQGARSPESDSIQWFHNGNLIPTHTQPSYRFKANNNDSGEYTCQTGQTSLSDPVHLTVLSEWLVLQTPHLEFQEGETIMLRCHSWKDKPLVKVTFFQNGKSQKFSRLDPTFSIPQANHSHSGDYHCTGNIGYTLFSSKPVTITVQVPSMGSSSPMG
# T2: FcgRIIaH (human, UniProt P12318 34-217)
# T2 construct: extracellular domain; also called FcγRIIa H; FcγRIIa type H; not shown: His tag at the C terminus
# T2 sequence (looked up): T1 sequence (looked up) with R134H
# T3: FcgRIIb (human, UniProt P31994 43-217)
# T3 construct: extracellular domain; also called FcγRIIb; CD32B; not shown: His tag at the C terminus
# T3 sequence (looked up): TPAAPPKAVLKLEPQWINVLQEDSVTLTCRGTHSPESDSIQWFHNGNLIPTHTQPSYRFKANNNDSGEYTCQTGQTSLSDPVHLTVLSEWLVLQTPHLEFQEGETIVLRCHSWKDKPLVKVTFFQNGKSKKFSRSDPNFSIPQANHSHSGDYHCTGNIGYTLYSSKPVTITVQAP
# B1: GpH7-G1d/GpL16-k0 (antibody, human IgG1, kappa)
# heavy: not shown
# light: DIVMTQSPLSLPVTPGEPASISCQASESLVHSNRNTYLHWYLQKPGQSPQLLIYKVSNRFSGVPDRFSGSGSGTDFTLKISRVEAEDVGVYYCSQNTHVPPTFGQGTKVEIERTVAAPSVFIFPPSDEQLKSGTASVVCLLNNFYPREAKVQWKVDNALQSGNSQESVTEQDSKDSTYSLSSTLTLSKADYEKHKVYACEVTHQGLSSPVTKSFNRGEC
# notes: Anti-glypican-3 IgG1 with C-terminal Gly and Lys removed; also called native IgG1
# B2: GpH7-A5/GpH7-B3/GpL16-k0 (antibody, human IgG1, kappa)
# heavy 1: not shown
# heavy 2: not shown
# light: B1 light
# notes: also called A5/B3; HeCon Ab
# B3: GpH7-G1d/GpL16-k0 (antibody, human IgG1, kappa)
# heavy: not shown
# light: B1 light
# notes: Anti-glypican-3 IgG1 whose H chain lacks the C-terminal Gly and Lys; Used as the native IgG1 control; also called native IgG1
# B4: H240-Kn033/H240-Hl033/L73-k0 (antibody, human IgG1, kappa)
# heavy 1: not shown
# heavy 2: not shown
# light: DIQMTQSPSSLSASVGDRVTITCRASQDIHKYIAWYQQKPGQAPRLLIQYTSTLQPGVPSRFSGSGSGTDYTFTISSLQPEDIATYYCLQYEQLRTFGGGTKVEIKRTVAAPSVFIFPPSDEQLKSGTASVVCLLNNFYPREAKVQWKVDNALQSGNSQESVTEQDSKDSTYSLSSTLTLSKADYEKHKVYACEVTHQGLSSPVTKSFNRGEC
# notes: Anti-epiregulin antibody; native IgG1 with only knobs-into-holes alterations
# B5: H240-afucosyl_G1d/L73-k0 (antibody, human IgG1, kappa)
# heavy: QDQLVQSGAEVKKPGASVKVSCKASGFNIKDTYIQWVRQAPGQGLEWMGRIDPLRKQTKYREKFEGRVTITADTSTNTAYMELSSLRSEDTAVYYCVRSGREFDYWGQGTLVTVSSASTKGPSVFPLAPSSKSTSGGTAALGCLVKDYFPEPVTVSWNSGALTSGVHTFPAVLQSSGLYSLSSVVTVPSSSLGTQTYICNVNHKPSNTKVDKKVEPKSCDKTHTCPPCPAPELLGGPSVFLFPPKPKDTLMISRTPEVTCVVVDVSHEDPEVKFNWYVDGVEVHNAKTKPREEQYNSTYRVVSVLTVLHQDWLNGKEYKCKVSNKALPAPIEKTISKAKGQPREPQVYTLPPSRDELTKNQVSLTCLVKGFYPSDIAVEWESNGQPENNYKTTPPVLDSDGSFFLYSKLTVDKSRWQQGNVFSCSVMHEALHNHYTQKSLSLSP
# light: B4 light
# modifications: fucose removed from the sugar chain (afucosylated)
# notes: Anti-epiregulin IgG1, afucosylated; also called afucosylated antibody
# B6: H240-Kn204/H240-Hl211/L73-k0 (antibody, human IgG1, kappa)
# heavy 1: QDQLVQSGAEVKKPGASVKVSCKASGFNIKDTYIQWVRQAPGQGLEWMGRIDPLRKQTKYREKFEGRVTITADTSTNTAYMELSSLRSEDTAVYYCVRSGREFDYWGQGTLVTVSSASTKGPSVFPLAPSSKSTSGGTAALGCLVKDYFPEPVTVSWNSGALTSGVHTFPAVLQSSGLYSLSSVVTVPSSSLGTQTYICNVNHKPSNTKVDKKVEPKSCDKTHTCPPCPAPEYLGGPSVFLFPPKPKDTLMISRTPEVTCVVVDVSHEDPEVKFNWYVDGVEVHNAKTYPREEQWNSTYRVVSVLTVLHQDWLNGKEYKCKVSNKALPAPIEKTISKAKGQPREPQVCTLPPSRDELTKNQVSLWCLVKGFYPSDIAVEWESNGQPENNYKTTPPVLDSDGSFFLYSKLTVDKSRWQQGNVFSCSVMHEALHNHYTQKSLSLSP
# heavy 2: QDQLVQSGAEVKKPGASVKVSCKASGFNIKDTYIQWVRQAPGQGLEWMGRIDPLRKQTKYREKFEGRVTITADTSTNTAYMELSSLRSEDTAVYYCVRSGREFDYWGQGTLVTVSSASTKGPSVFPLAPSSKSTSGGTAALGCLVKDYFPEPVTVSWNSGALTSGVHTFPAVLQSSGLYSLSSVVTVPSSSLGTQTYICNVNHKPSNTKVDKKVEPKSCDKTHTCPPCPAPELLGGPDVFLFPPKPKDTLMISRTPEVTCVVVDVSHEDPEVKFNWYVDGVEVHNAKTKPREEQYNSTYRVVSVLTVLHQDWLNGKEYKCKVSNKALPMPIEVTISKAKGQPREPQVYTLPPSRCELTKNQVSLSCAVKGFYPSDIAVEWESNGQPENNYKTTPPVLDSDGSFFLVSKLTVDKSRWQQGNVFSCSVMHEALHNHYTQKSLSLSP
# light: B4 light
# notes: L234Y/K290Y/Y296W in one H chain, S239D/A330M/K334V in the other
# B7: H240-Kn032/H240-Hl032/L73-k0 (antibody, human IgG1, kappa)
# heavy 1: B6 heavy 1 with Y233L, S238D, Y289K, W295Y, A329L, I331E
# heavy 2: B6 heavy 2 with M329L, I331E, V333K
# light: B4 light
# notes: S239D/A330L/I332E in both H chains
# B8: H240-Kn229/H240-Hl068/L73-k0 (antibody, human IgG1, kappa)
# heavy 1: B6 heavy 1 with L234Y, G235W, S238I, H267D, Y289K, W295Y, S297A, A326D
# heavy 2: B6 heavy 2 with D238S, D269E, K325D, M329K, V333E
# light: B4 light
# B9: H240-Kn205/H240-Hl212/L73-k0 (antibody, human IgG1, kappa)
# heavy 1: B6 heavy 1 with Y289K, S297C
# heavy 2: B6 heavy 2 with M329A
# light: B4 light
# notes: L234Y/Y296W/S298C in one H chain, S239D/K334V in the other
# B10: H240-Kn037/H240-Hl036/L73-k0 (antibody, human IgG1, kappa)
# heavy 1: B6 heavy 1 with Y233L, G235A, S238D, Y289K, W295Y, I331E
# heavy 2: B6 heavy 2 with G235A, M329A, I331E, V333K
# light: B4 light
# notes: it says that both H chains have G236A/S239D/I332E
# B11: H240-Kn225/H240-Hl076/L73-k0 (antibody, human IgG1, kappa)
# heavy 1: B6 heavy 1 with L234Q, G235W, S238I, H267D, D269E, Y289K, W295Y, S297A
# heavy 2: B6 heavy 2 with D238S, D269E, K325D, V333E
# light: B4 light
# Biological target: T4, FcγRIIIa F extracellular domain with C-terminal His tag (human, UniProt P08637 17-208)
# T4 construct: extracellular domain; Soluble receptor, F158 allotype; also called FcgRIIIa F; FcgRIIIaF; not shown: His tag at the C terminus
# T4 sequence (P08637 17-208): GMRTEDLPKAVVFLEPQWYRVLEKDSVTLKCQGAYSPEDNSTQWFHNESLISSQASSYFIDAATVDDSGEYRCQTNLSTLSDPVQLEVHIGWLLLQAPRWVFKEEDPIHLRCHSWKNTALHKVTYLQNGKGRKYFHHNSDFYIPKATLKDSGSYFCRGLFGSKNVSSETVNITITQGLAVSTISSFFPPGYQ
# Assay: SPR (Biacore); KD for FcγRIIb divided by KD for FcγRIIIa F
# Method: The prepared antibodies were assayed as to the KDs for FcγRIIIa and FcγRIIb according to the method described in Reference Example 2.
# (§1) Analysis of interaction between objective antibody and the FcγR was carried out using Biacore T100 (GE Healthcare). HBS-EP+ (GE Healthcare) was used as the running buffer, and the measurement temperature was set to 25° C. Chips produced by immobilizing the antigen peptide by the amine coupling method to a Series S Sencor Chip CM5 (GE Healthcare), or alternatively, chips produced by allowing preliminarily biotinylated antigen peptides to interact with and immobilize onto a Series S Sensor Chip SA (certified) (GE Healthcare) were used. Antibodies of interest were captured onto an antigen peptide-immobilized chip, and allowed to interact to each FcγR diluted with running buffer. To regenerate and repeatedly use the chip, the antibodies captured on the chip were washed off by reacting 10 mM glycine-HCl, pH 1.5.
row,Binder,FcγRIIIa F/FcγRIIb ratio
1,B1,2.5
2,B2,1.9

# Biological target: T5, FcγRIIIa (human, UniProt P08637 17-208)
# T5 construct: extracellular domain; also called FcgRIIIa; CD16A; not shown: His tag attached to the C terminus
# T5 sequence (P08637 17-208): as above
# Assay: ratio of SPR KDs: KD of GpH7-G1d/GpL16-k0 divided by KD of this antibody
# Method: The prepared antibodies were compared for the FcγRIIIa-binding activity using, as an indicator, KD for FcγRIIIa that was determined according to the method described in Reference Example 2.
# as §1
# Specifically, to calculate association rate constant ka (L/mol/s) and dissociation rate constant kd (1/s), sensorgrams obtained by measurement were processed for global fitting by Biacore Evaluation Software using 1:1 Langmuir binding model and dissociation constant KD (mol/1) was calculated from the resulting values.
row,Binder,KD ratio 1
1,B3,1 fold

# Biological target: T1, FcgRIIaR
# Assay: SPR (Biacore); KD of H240-Kn033/H240-Hl033/L73-k0 divided by KD of the variant
# Method: (§2) Binding of the produced variants to FcgRIa, FcgRIIaR, FcgRIIaH, FcgRIIb, FcgRIIIaF, and FcgRIIIaV was measured according to the method of Reference Example 8.
# (§3) Analysis of interaction between objective antibody and the FcγR was carried out using Biacore T100 (GE Healthcare), Biacore T200, Biacore A100, and Biacore 4000. HBS-EP+ (GE Healthcare) was used as the running buffer, and the measurement temperature was set to 25° C. Chips produced by immobilizing the antigen peptide by the amine coupling method to a Series S sensor Chip CM5 (GE Healthcare), chips produced by allowing preliminarily biotinylated antigen peptides to interact with and immobilize onto a Series S Sensor Chip SA (certified) (GE Healthcare), chips produced by immobilizing Protein L (ACTIGEN, BioVision) to Series S Sencor Chip CM5 (GE Healthcare), or chips produced by immobilizing Protein A/G (Thermo Scientific) to Series S Sencor Chip CM5 (GE Healthcare) were used. Antibodies of interest were captured onto these chips, and allowed to interact to each FcγR diluted with running buffer. To regenerate and repeatedly use the chip, the antibodies captured onto the chip were washed off by reacting 10 mM glycine-HCl, pH 1.5.
row,Binder,fold 2aR
1,B4,1 fold
2,B5,1.5 fold
3,B6,1.2 fold
4,B7,2.2 fold
5,B8,46.3 fold
6,B9,1.2 fold
7,B10,25.5 fold
8,B11,1.5 fold

# Biological target: T2, FcgRIIaH
# Assay: as above
# Method: as §2, §3
row,Binder,fold 2aH
1,B4,1 fold
2,B5,0.7 fold
3,B6,0.7 fold
4,B7,0.8 fold
5,B8,13.3 fold
6,B9,1.4 fold
7,B10,11.3 fold
8,B11,3.1 fold

# Biological target: T3, FcgRIIb
# Assay: as above
# Method: as §2, §3
row,Binder,fold 2b
1,B4,1 fold
2,B5,1.3 fold
3,B6,2.5 fold
4,B7,5.3 fold
5,B8,16.5 fold
6,B9,2.1 fold
7,B10,8.7 fold
8,B11,0.6 fold

# Biological target: T6, FcgRIIIaF (human, UniProt P08637 17-208)
# T6 construct: extracellular domain; also called FcγRIIIa F; not shown: His tag at the C terminus
# T6 sequence (P08637 17-208): as above
# Assay: as above
# Method: as §2, §3
row,Binder,fold 3aF
1,B4,1 fold
2,B5,3.7 fold
3,B6,20.7 fold
4,B7,31.9 fold
5,B8,138 fold
6,B9,24.2 fold
7,B10,13.8 fold
8,B11,264 fold

# Biological target: T7, FcgRIIIaV (human, UniProt P08637 17-208)
# T7 construct: extracellular domain; also called FcγRIIIa V; not shown: His tag at the C terminus
# T7 sequence (P08637 17-208 F176V limits assumed): as the sequence (P08637 17-208) above, with F160V counted along it
# Assay: as above
# Method: as §2, §3
row,Binder,fold 3aV
1,B4,1 fold
2,B5,7 fold
3,B6,6.5 fold
4,B7,15.5 fold
5,B8,62.3 fold
6,B9,11.4 fold
7,B10,7.1 fold
8,B11,253 fold
